Results: IntAct's records for PubMed 31515488

B1: Transcription factor 12 (Homo sapiens), Q99081 (parent)
chain: MNPQQQRMAAIGTDKELSDLLDFSAMFSPPVNSGKTRPTTLGSSQFSGSGIDERGGTTSWGTSGQPSPSYDSSRGFTDSPHYSDHLNDSRLGAHEGLSPTPFMNSNLMGKTSERGSFSLYSRDTGLPGCQSSLLRQDLGLGSPAQLSSSGKPGTAYYSFSATSSRRRPLHDSAALDPLQAKKVRKVPPGLPSSVYAPSPNSDDFNRESPSYPSPKPPTSMFASTFFMQDGTHNSSDLWSSSNGMSQPGFGGILGTSTSHMSQSSSYGNLHSHDRLSYPPHSVSPTDINTSLPPMSSFHRGSTSSSPYVAASHTPPINGSDSILGTRGNAAGSSQTGDALGKALASIYSPDHTSSSFPSNPSTPVGSPSPLTGTSQWPRPGGQAPSSPSYENSLHSLQSRMEDRLDRLDDAIHVLRNHAVGPSTSLPAGHSDIHSLLGPSHNAPIGSLNSNYGGSSLVASSRSASMVGTHREDSVSLNGNHSVLSSTVTTSSTDLNHKTQENYRGGLQSQSGTVVTTEIKTENKEKDENLHEPPSSDDMKSDDESSQKDIKVSSRGRTSSTNEDEDLNPEQKIEREKERRMANNARERLRVRDINEAFKELGRMCQLHLKSEKPQTKLLILHQAVAVILSLEQQVRERNLNPKAACLKRREEEKVSAVSAEPPTTLPGTHPGLSETTNPMGHM
partner: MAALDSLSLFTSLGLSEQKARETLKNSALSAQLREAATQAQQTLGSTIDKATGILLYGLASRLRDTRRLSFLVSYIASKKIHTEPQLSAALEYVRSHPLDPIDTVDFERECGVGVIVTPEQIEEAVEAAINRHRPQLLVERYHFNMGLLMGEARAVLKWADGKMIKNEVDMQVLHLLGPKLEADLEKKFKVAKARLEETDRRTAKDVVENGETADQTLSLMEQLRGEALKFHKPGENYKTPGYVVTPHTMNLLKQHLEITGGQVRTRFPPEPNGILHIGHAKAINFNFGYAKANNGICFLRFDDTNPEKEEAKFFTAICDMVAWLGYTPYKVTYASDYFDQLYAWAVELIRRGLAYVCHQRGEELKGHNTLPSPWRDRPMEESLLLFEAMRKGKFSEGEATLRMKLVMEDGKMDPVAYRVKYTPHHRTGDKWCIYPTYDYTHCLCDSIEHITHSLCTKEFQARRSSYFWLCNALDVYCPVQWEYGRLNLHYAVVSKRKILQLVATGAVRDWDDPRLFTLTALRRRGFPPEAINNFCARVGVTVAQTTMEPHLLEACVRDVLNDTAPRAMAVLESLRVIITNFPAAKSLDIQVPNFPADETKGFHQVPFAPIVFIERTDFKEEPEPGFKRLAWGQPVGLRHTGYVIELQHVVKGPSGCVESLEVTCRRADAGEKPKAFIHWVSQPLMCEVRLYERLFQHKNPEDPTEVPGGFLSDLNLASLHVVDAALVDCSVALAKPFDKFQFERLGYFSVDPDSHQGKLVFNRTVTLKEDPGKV
B2: Notch homolog 2 N-terminal-like protein A (Homo sapiens), Q7Z3S9 (parent)
chain: MCVTYHNGTGYCKCPEGFLGEYCQHRDPCEKNRCQNGGTCVAQAMLGKATCRCASGFTGEDCQYSTSHPCFVSRPCLNGGTCHMLSRDTYECTCQVGFTGKECQWTDACLSHPCANGSTCTTVANQFSCKCLTGFTGQKCETDVNECDIPGHCQHGGTCLNLPGSYQCQCLQGFTGQYCDSLYVPCAPSPCVNGGTCRQTGDFTFECNCLPETVRRGTELWERDREVWNGKEHDEN
partner: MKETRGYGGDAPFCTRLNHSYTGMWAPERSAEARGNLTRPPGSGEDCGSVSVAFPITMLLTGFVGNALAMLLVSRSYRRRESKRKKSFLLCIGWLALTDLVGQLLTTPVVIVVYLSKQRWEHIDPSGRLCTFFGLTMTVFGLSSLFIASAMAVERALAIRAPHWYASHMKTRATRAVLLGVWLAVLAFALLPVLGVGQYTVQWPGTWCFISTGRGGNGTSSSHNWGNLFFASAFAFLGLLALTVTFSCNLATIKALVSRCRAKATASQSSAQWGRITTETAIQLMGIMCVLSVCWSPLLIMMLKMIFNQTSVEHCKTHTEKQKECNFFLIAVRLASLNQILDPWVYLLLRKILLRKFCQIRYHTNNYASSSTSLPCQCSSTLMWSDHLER
B3: Proto-oncogene serine/threonine-protein kinase mos (Homo sapiens), P00540 (parent)
chain: MPSPLALRPYLRSEFSPSVDARPCSSPSELPAKLLLGATLPRAPRLPRRLAWCSIDWEQVCLLQRLGAGGFGSVYKATYRGVPVAIKQVNKCTKNRLASRRSFWAELNVARLRHDNIVRVVAASTRTPAGSNSLGTIIMEFGGNVTLHQVIYGAAGHPEGDAGEPHCRTGGQLSLGKCLKYSLDVVNGLLFLHSQSIVHLDLKPANILISEQDVCKISDFGCSEKLEDLLCFQTPSYPLGGTYTHRAPELLKGEGVTPKADIYSFAITLWQMTTKQAPYSGERQHILYAVVAYDLRPSLSAAVFEDSLPGQRLGDVIQRCWRPSAAQRPSARLLLVDLTSLKAELG
partner: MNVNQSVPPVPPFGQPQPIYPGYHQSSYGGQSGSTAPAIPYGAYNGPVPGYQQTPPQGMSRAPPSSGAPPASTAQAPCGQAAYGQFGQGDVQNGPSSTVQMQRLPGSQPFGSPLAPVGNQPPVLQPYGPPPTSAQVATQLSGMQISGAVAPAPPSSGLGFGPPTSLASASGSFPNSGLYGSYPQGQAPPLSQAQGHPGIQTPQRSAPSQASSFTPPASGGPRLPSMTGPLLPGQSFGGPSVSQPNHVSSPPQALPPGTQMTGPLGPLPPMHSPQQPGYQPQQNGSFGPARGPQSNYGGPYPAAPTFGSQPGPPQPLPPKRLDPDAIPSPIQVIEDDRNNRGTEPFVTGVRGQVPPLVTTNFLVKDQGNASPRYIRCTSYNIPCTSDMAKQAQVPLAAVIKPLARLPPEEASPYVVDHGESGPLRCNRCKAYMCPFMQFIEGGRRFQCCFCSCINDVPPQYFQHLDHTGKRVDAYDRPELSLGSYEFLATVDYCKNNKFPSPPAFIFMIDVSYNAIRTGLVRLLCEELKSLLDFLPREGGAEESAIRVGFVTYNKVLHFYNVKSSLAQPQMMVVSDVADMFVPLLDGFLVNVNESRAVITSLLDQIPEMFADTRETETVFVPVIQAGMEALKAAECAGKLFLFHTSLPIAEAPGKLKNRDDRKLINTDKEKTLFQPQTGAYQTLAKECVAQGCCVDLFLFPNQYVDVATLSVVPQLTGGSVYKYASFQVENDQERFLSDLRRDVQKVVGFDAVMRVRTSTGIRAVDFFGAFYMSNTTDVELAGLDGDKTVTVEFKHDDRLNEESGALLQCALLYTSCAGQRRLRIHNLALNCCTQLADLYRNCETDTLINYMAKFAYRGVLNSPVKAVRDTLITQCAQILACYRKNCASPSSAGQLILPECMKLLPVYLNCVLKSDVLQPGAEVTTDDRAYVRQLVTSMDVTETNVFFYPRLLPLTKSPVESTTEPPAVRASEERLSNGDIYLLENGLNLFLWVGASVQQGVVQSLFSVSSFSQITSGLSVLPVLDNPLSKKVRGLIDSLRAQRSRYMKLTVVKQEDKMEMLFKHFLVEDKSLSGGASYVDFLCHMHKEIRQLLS
B4: Ornithine decarboxylase antizyme 3 (Homo sapiens), Q9UMX2 (parent)
chain: MPCKRCRPSVYSLSYIKRGKTRNYLYPIWSPYAYYLYCYKYRITLREKMLPRCYKSITYKEEEDLTLQPRSCLQCSESLVGLQEGKSTEQGNHDQLKELYSAGNLTVLATDPLLHQDPVQLDFHFRLTSQTSAHWHGLLCDRRLFLDIPYQALDQGNRESLTATLEYVEEKTNVDSVFVNFQNDRNDRGALLRAFSYMGFEVVRPDHPALPPLDNVIFMVYPLERDVGHLPSEPP
partner: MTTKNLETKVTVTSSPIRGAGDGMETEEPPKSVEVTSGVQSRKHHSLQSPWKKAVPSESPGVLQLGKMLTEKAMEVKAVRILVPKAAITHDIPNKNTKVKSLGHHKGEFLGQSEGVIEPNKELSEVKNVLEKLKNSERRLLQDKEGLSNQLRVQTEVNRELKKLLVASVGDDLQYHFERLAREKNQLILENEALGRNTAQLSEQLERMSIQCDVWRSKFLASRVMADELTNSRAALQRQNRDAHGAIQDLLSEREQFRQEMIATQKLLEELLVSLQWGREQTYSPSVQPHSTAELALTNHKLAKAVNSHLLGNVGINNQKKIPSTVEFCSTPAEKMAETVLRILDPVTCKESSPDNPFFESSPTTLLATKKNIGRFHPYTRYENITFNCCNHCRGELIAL
B5: Charged multivesicular body protein 7 (Homo sapiens), Q8WUX9 (parent)
chain: MWSPEREAEAPAGGDPAGLLPPEWEEDEERMSFLFSAFKRSREVNSTDWDSKMGFWAPLVLSHSRRQGVVRLRLRDLQEAFQRKGSVPLGLATVLQDLLRRGELQRESDFMASVDSSWISWGVGVFLLKPLKWTLSNMLGDNKVPAEEVLVAVELLKEKAEEVYRLYQNSPLSSHPVVALSELSTLCANSCPDERTFYLVLLQLQKEKRVTVLEQNGEKIVKFARGPRAKVSPVNDVDVGVYQLMQSEQLLSRKVESLSQEAERCKEEARRACRAGKKQLALRSLKAKQRTEKRIEALHAKLDTVQGILDRIYASQTDQMVFNAYQAGVGALKLSMKDVTVEKAESLVDQIQELCDTQDEVSQTLAGGVTNGLDFDSEELEKELDILLQDTTKEPLDLPDNPRNRHFTNSVPNPRISDAELEAELEKLSLSEGGLVPSSKSPKRQLEPTLKPL
partner: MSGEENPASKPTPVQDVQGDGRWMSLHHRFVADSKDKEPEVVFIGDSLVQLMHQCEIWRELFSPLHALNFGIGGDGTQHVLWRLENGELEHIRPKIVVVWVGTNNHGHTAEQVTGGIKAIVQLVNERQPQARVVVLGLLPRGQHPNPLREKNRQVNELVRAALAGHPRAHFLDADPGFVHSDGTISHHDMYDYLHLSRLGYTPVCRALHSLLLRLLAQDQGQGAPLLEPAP
B6: Centrosomal protein of 55 kDa (Homo sapiens), Q53EZ4 (parent)
chain: MSSRSTKDLIKSKWGSKPSNSKSETTLEKLKGEIAHLKTSVDEITSGKGKLTDKERHRLLEKIRVLEAEKEKNAYQLTEKDKEIQRLRDQLKARYSTTTLLEQLEETTREGERREQVLKALSEEKDVLKQQLSAATSRIAELESKTNTLRLSQTVAPNCFNSSINNIHEMEIQLKDALEKNQQWLVYDQQREVYVKGLLAKIFELEKKTETAAHSLPQQTKKPESEGYLQEEKQKCYNDLLASAKKDLEVERQTITQLSFELSEFRRKYEETQKEVHNLNQLLYSQRRADVQHLEDDRHKTEKIQKLREENDIARGKLEEEKKRSEELLSQVQFLYTSLLKQQEEQTRVALLEQQMQACTLDFENEKLDRQHVQHQLHVILKELRKARNQITQLESLKQLHEFAITEPLVTFQGETENREKVAASPKSPTAALNESLVECPKCNIQYPATEHRDLLVHVEYCSK
partner: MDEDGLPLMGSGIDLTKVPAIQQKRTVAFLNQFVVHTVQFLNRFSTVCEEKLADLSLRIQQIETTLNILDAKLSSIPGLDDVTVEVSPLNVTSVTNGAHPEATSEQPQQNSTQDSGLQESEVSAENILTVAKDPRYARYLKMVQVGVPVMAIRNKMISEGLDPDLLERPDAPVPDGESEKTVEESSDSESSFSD
B7: Dendritic cell nuclear protein 1 (Homo sapiens), Q8TF63 (parent)
chain: MHYGAATHIQNSRSHGLETVPGHQRLERGAGGETPEFPGCHSPAPPENFGNELLPLSAPLQGLSEGLYPPGRNKTLPAGVLREGAVQFLHRGLCNSNLSSEASARPSGTQDELHSSRRKTGQTRREGARKHLVCSFRLYPFTVHTVSPGNSHLALYQVFKAVKLCPSETSFFLSRKSLKSSDPWHPPSLSPNSWNRQAGFRAWSSHLISLSLTCSDSQSRRVSSSQQPPLHSLSSHRRAAHVPE

Variants of: B1
Settings: with syq_human QARS1, P47897

| effect of a mutation on the interaction | Variant |
| --- | --- |
| with no effect | N479S |

Variants of: B2
Settings: with pe2r3_human PTGER3, P43115

| effect of a mutation on the interaction | Variant |
| --- | --- |
| with no effect | R74Q |
| with no effect | A115T |

Variants of: B3
Settings: with sc24c_human SEC24C

| effect of a mutation on the interaction | Variant |
| --- | --- |
| with no effect | A105S |
| disrupting interaction strength | A123T |

Variants of: B4
Settings: with go45_human BLZF1, Q9H2G9

| effect of a mutation on the interaction | Variant |
| --- | --- |
| disrupting interaction strength | V174A |
| with no effect | R193Q |

Variants of: B5
Settings: with pa1b3_human PAFAH1B3, Q15102

| effect of a mutation on the interaction | Variant |
| --- | --- |
| with no effect | R228C |

Variants of: B6
Settings: with wasc3_human WASHC3, Q9Y3C0

| effect of a mutation on the interaction | Variant |
| --- | --- |
| with no effect | L59F |

Variants of: B7
Settings: with mdfi_human MDFI

| effect of a mutation on the interaction | Variant |
| --- | --- |
| with no effect | S135C |
| with no effect | P183T |
